Sequences and labels used below:
B1: MtbCbs W433F (enzyme)
chain: MRIAQHISELIGGTPLVRLNSVVPDGAGTVAAKVEYLNPGGSSKDRIAVKMIEAAEASGQLKPGGTIVEPTSGNTGVGLALVAQRRGYKCVFVCPDKVSEDKRNVLIAYGAEVVVCPTAVPPHDPASYYSVSDRLVRDIDGAWKPDQYANPEGPASHYVTTGPEIWADTEGKVTHFVAGIGTGGTITGAGRYLKEVSGGRVRIVGADPEGSVYSGGAGRPYLVEGVGEDFWPAAYDPSVPDEIIAVSDSDSFDMTRRLAREEAMLVGGSCGMAVVAALKVAEEAGPDALIVVLLPDGGRGYMSKIFNDAWMSSYGFLRSRLDGSTEQSTVGDVLRRKSGALPALVHTHPSETVRDAIGILREYGVSQMPVVGAEPPVMAGEVAGSVSERELLSAVFEGRAKLADAVSAHMSPPLRMIGAGELVSAAGKALRDFDALMVVEEGKPVGVITRYDLLGFLSEGAGRR
B2: MtbCbs D432N (enzyme)
chain: MRIAQHISELIGGTPLVRLNSVVPDGAGTVAAKVEYLNPGGSSKDRIAVKMIEAAEASGQLKPGGTIVEPTSGNTGVGLALVAQRRGYKCVFVCPDKVSEDKRNVLIAYGAEVVVCPTAVPPHDPASYYSVSDRLVRDIDGAWKPDQYANPEGPASHYVTTGPEIWADTEGKVTHFVAGIGTGGTITGAGRYLKEVSGGRVRIVGADPEGSVYSGGAGRPYLVEGVGEDFWPAAYDPSVPDEIIAVSDSDSFDMTRRLAREEAMLVGGSCGMAVVAALKVAEEAGPDALIVVLLPDGGRGYMSKIFNDAWMSSYGFLRSRLDGSTEQSTVGDVLRRKSGALPALVHTHPSETVRDAIGILREYGVSQMPVVGAEPPVMAGEVAGSVSERELLSAVFEGRAKLADAVSAHMSPPLRMIGAGELVSAAGKALRNWDALMVVEEGKPVGVITRYDLLGFLSEGAGRR
B3: MtbCbs S411A (enzyme)
chain: MRIAQHISELIGGTPLVRLNSVVPDGAGTVAAKVEYLNPGGSSKDRIAVKMIEAAEASGQLKPGGTIVEPTSGNTGVGLALVAQRRGYKCVFVCPDKVSEDKRNVLIAYGAEVVVCPTAVPPHDPASYYSVSDRLVRDIDGAWKPDQYANPEGPASHYVTTGPEIWADTEGKVTHFVAGIGTGGTITGAGRYLKEVSGGRVRIVGADPEGSVYSGGAGRPYLVEGVGEDFWPAAYDPSVPDEIIAVSDSDSFDMTRRLAREEAMLVGGSCGMAVVAALKVAEEAGPDALIVVLLPDGGRGYMSKIFNDAWMSSYGFLRSRLDGSTEQSTVGDVLRRKSGALPALVHTHPSETVRDAIGILREYGVSQMPVVGAEPPVMAGEVAGSVSERELLSAVFEGRAKLADAVSAHMAPPLRMIGAGELVSAAGKALRDWDALMVVEEGKPVGVITRYDLLGFLSEGAGRR
B4: MtbCbs E390A (enzyme)
chain: MRIAQHISELIGGTPLVRLNSVVPDGAGTVAAKVEYLNPGGSSKDRIAVKMIEAAEASGQLKPGGTIVEPTSGNTGVGLALVAQRRGYKCVFVCPDKVSEDKRNVLIAYGAEVVVCPTAVPPHDPASYYSVSDRLVRDIDGAWKPDQYANPEGPASHYVTTGPEIWADTEGKVTHFVAGIGTGGTITGAGRYLKEVSGGRVRIVGADPEGSVYSGGAGRPYLVEGVGEDFWPAAYDPSVPDEIIAVSDSDSFDMTRRLAREEAMLVGGSCGMAVVAALKVAEEAGPDALIVVLLPDGGRGYMSKIFNDAWMSSYGFLRSRLDGSTEQSTVGDVLRRKSGALPALVHTHPSETVRDAIGILREYGVSQMPVVGAEPPVMAGEVAGSVSERALLSAVFEGRAKLADAVSAHMSPPLRMIGAGELVSAAGKALRDWDALMVVEEGKPVGVITRYDLLGFLSEGAGRR
B5: MtbCbs mutant lacking the Bateman module (MtbCbs 1-317) (domain or fragment)
chain: MRIAQHISELIGGTPLVRLNSVVPDGAGTVAAKVEYLNPGGSSKDRIAVKMIEAAEASGQLKPGGTIVEPTSGNTGVGLALVAQRRGYKCVFVCPDKVSEDKRNVLIAYGAEVVVCPTAVPPHDPASYYSVSDRLVRDIDGAWKPDQYANPEGPASHYVTTGPEIWADTEGKVTHFVAGIGTGGTITGAGRYLKEVSGGRVRIVGADPEGSVYSGGAGRPYLVEGVGEDFWPAAYDPSVPDEIIAVSDSDSFDMTRRLAREEAMLVGGSCGMAVVAALKVAEEAGPDALIVVLLPDGGRGYMSKIFNDAWMSSYGFL
B6: MtbCbs L454A (enzyme)
chain: MRIAQHISELIGGTPLVRLNSVVPDGAGTVAAKVEYLNPGGSSKDRIAVKMIEAAEASGQLKPGGTIVEPTSGNTGVGLALVAQRRGYKCVFVCPDKVSEDKRNVLIAYGAEVVVCPTAVPPHDPASYYSVSDRLVRDIDGAWKPDQYANPEGPASHYVTTGPEIWADTEGKVTHFVAGIGTGGTITGAGRYLKEVSGGRVRIVGADPEGSVYSGGAGRPYLVEGVGEDFWPAAYDPSVPDEIIAVSDSDSFDMTRRLAREEAMLVGGSCGMAVVAALKVAEEAGPDALIVVLLPDGGRGYMSKIFNDAWMSSYGFLRSRLDGSTEQSTVGDVLRRKSGALPALVHTHPSETVRDAIGILREYGVSQMPVVGAEPPVMAGEVAGSVSERELLSAVFEGRAKLADAVSAHMSPPLRMIGAGELVSAAGKALRDWDALMVVEEGKPVGVITRYDLAGFLSEGAGRR
B7: MtbCbs R450A (enzyme)
chain: MRIAQHISELIGGTPLVRLNSVVPDGAGTVAAKVEYLNPGGSSKDRIAVKMIEAAEASGQLKPGGTIVEPTSGNTGVGLALVAQRRGYKCVFVCPDKVSEDKRNVLIAYGAEVVVCPTAVPPHDPASYYSVSDRLVRDIDGAWKPDQYANPEGPASHYVTTGPEIWADTEGKVTHFVAGIGTGGTITGAGRYLKEVSGGRVRIVGADPEGSVYSGGAGRPYLVEGVGEDFWPAAYDPSVPDEIIAVSDSDSFDMTRRLAREEAMLVGGSCGMAVVAALKVAEEAGPDALIVVLLPDGGRGYMSKIFNDAWMSSYGFLRSRLDGSTEQSTVGDVLRRKSGALPALVHTHPSETVRDAIGILREYGVSQMPVVGAEPPVMAGEVAGSVSERELLSAVFEGRAKLADAVSAHMSPPLRMIGAGELVSAAGKALRDWDALMVVEEGKPVGVITAYDLLGFLSEGAGRR
B8: MtbCbs S393R (enzyme)
chain: MRIAQHISELIGGTPLVRLNSVVPDGAGTVAAKVEYLNPGGSSKDRIAVKMIEAAEASGQLKPGGTIVEPTSGNTGVGLALVAQRRGYKCVFVCPDKVSEDKRNVLIAYGAEVVVCPTAVPPHDPASYYSVSDRLVRDIDGAWKPDQYANPEGPASHYVTTGPEIWADTEGKVTHFVAGIGTGGTITGAGRYLKEVSGGRVRIVGADPEGSVYSGGAGRPYLVEGVGEDFWPAAYDPSVPDEIIAVSDSDSFDMTRRLAREEAMLVGGSCGMAVVAALKVAEEAGPDALIVVLLPDGGRGYMSKIFNDAWMSSYGFLRSRLDGSTEQSTVGDVLRRKSGALPALVHTHPSETVRDAIGILREYGVSQMPVVGAEPPVMAGEVAGSVSERELLRAVFEGRAKLADAVSAHMSPPLRMIGAGELVSAAGKALRDWDALMVVEEGKPVGVITRYDLLGFLSEGAGRR
B9: MtbCbs E388A (enzyme)
chain: MRIAQHISELIGGTPLVRLNSVVPDGAGTVAAKVEYLNPGGSSKDRIAVKMIEAAEASGQLKPGGTIVEPTSGNTGVGLALVAQRRGYKCVFVCPDKVSEDKRNVLIAYGAEVVVCPTAVPPHDPASYYSVSDRLVRDIDGAWKPDQYANPEGPASHYVTTGPEIWADTEGKVTHFVAGIGTGGTITGAGRYLKEVSGGRVRIVGADPEGSVYSGGAGRPYLVEGVGEDFWPAAYDPSVPDEIIAVSDSDSFDMTRRLAREEAMLVGGSCGMAVVAALKVAEEAGPDALIVVLLPDGGRGYMSKIFNDAWMSSYGFLRSRLDGSTEQSTVGDVLRRKSGALPALVHTHPSETVRDAIGILREYGVSQMPVVGAEPPVMAGEVAGSVSARELLSAVFEGRAKLADAVSAHMSPPLRMIGAGELVSAAGKALRDWDALMVVEEGKPVGVITRYDLLGFLSEGAGRR
B10: MtbCbs I357A (enzyme)
chain: MRIAQHISELIGGTPLVRLNSVVPDGAGTVAAKVEYLNPGGSSKDRIAVKMIEAAEASGQLKPGGTIVEPTSGNTGVGLALVAQRRGYKCVFVCPDKVSEDKRNVLIAYGAEVVVCPTAVPPHDPASYYSVSDRLVRDIDGAWKPDQYANPEGPASHYVTTGPEIWADTEGKVTHFVAGIGTGGTITGAGRYLKEVSGGRVRIVGADPEGSVYSGGAGRPYLVEGVGEDFWPAAYDPSVPDEIIAVSDSDSFDMTRRLAREEAMLVGGSCGMAVVAALKVAEEAGPDALIVVLLPDGGRGYMSKIFNDAWMSSYGFLRSRLDGSTEQSTVGDVLRRKSGALPALVHTHPSETVRDAAGILREYGVSQMPVVGAEPPVMAGEVAGSVSERELLSAVFEGRAKLADAVSAHMSPPLRMIGAGELVSAAGKALRDWDALMVVEEGKPVGVITRYDLLGFLSEGAGRR
notes: also called I357A mutant

The stoichiometry N is the number of molecules, sites or subunits per partner or assembly.

The first series deals with the molecule itself.
Experiment: not given
Regarding B1, the “stoichiometry N” value is 4.

On to B2, for which the “stoichiometry N” value came to 4.

Consider B3, for which the “stoichiometry N” value is 4.

As to B4, the “stoichiometry N” value was 4.

Another series deals with the molecule itself. Kind of series: SEC. A general note: In gel filtration, larger molecules generally elute earlier.
On to B5, for which the “stoichiometry N” value is 2.

As to B6, the binding result is “binds”.

On to B7, for which the binding result is on record as “binds”.

B8: the binding result is “binds”.

In the case of B9, the binding result is “binds”.

Consider B10, for which the binding result is reported as “binds”.

(Values after PMC9232105, “S-Adenosylmethionine–responsive cystathionine β-synthase modulates sulfur metabolism and redox balance in Mycobacterium tuberculosis” (Science Advances, 2022).)
